# Measurements as given in the supplement of paper PMC11246515.
# ± gives the standard deviation of the averaged measurements.
# Experiment: total protein half-life in vivo (active degradation + dilution); higher = more stable protein
# [1] = E. coli NCM3722 delta-clpP delta-lon delta-hslV, growth: N-lim chemostat, doubling time 6 h
# [2] = E. coli NCM3722 delta-clpP, growth: N-lim chemostat, doubling time 6 h
# [3] = E. coli NCM3722 delta-hslV, growth: N-lim chemostat, doubling time 6 h
# [4] = E. coli NCM3722 delta-lon, growth: N-lim chemostat, doubling time 6 h
# [5] = E. coli NCM3722 delta-smpB, growth: N-lim chemostat, doubling time 6 h
# [6] = wild type E. coli NCM3722, growth: C-lim chemostat, doubling time 3 h
# [7] = wild type E. coli NCM3722, growth: C-lim chemostat, doubling time 6 h
# [8] = wild type E. coli NCM3722, growth: C-lim chemostat, doubling time 12 h
# [9] = wild type E. coli NCM3722, growth: N-lim chemostat, doubling time 6 h
# [10] = wild type E. coli NCM3722, growth: N-lim chemostat, doubling time 12 h
# [11] = wild type E. coli NCM3722, growth: P-lim chemostat, doubling time 6 h
# [12] = wild type E. coli NCM3722, growth: P-lim chemostat, doubling time 12 h
Sequence,total protein half-life in vivo [1],total protein half-life in vivo [2],total protein half-life in vivo [3],total protein half-life in vivo [4],total protein half-life in vivo [5],total protein half-life in vivo [6],total protein half-life in vivo [7],total protein half-life in vivo [8],total protein half-life in vivo [9],total protein half-life in vivo [10],total protein half-life in vivo [11],total protein half-life in vivo [12]
MDQKQIEEIVRSVMASMGQAAPAPSEAKCATTNCAAPVTSESCALDLGSAEAKAWIGVENPHRADVLTELRRSTVARVCTGRAGPRPRTQALLRFLADHSRSKDTVLKEVPEEWVKAQGLLEVRSEISDKNLYLTRPDMGRRLCAEAVEALKAQCVANPDVQVVISDGLSTDAITVNYEEILPPLMAGLKQAGLKVGTPFFVRYGRVKIEDQIGEILGAKVVILLVGERPGLGQSESLSCYAVYSPRMATTVEADRTCISNIHQGGTPPVEAAAVIVDLAKRMLEQKASGINMTR,5.05 ± 0.91 h,3.65 ± 0.13 h,3.19 ± 0.053 h,4.21 ± 0.95 h,3.11 ± 0.17 h,2.6 ± 0.1 h,5.43 ± 0.85 h,8.48 ± 0.82 h,3.41 ± 0.32 h,4.31 ± 0.15 h,4.69 ± 0.096 h,9.58 ± 0.56 h
MNKYLKYFSGTLVGLMLSTSAFAAAEYAVVLKTLSNPFWVDMKKGIEDEAKTLGVSVDIFASPSEGDFQSQLQLFEDLSNKNYKGIAFAPLSSVNLVMPVARAWKKGIYLVNLDEKIDMDNLKKAGGNVEAFVTTDNVAVGAKGASFIIDKLGAEGGEVAIIEGKAGNASGEARRNGATEAFKKASQIKLVASQPADWDRIKALDVATNVLQRNPNIKAIYCANDTMAMGVAQAVANAGKTGKVLVVGTDGIPEARKMVEAGQMTATVAQNPADIGATGLKLMVDAEKSGKVIPLDKAPEFKLVDSILVTQ,4 ± 0.15 h,5.04 ± 0.31 h,5.783 ± 0.043 h,6.64 ± 0.52 h,5.82 ± 0.24 h,3.15 ± 0.034 h,6.52 ± 2 h,9.15 ± 0.44 h,5.9 ± 0.064 h,12.3 ± 0.66 h,5.91 ± 0.37 h,11.3 ± 0.52 h
MTDSELMQLSEQVGQALKARGATVTTAESCTGGWVAKVITDIAGSSAWFERGFVTYSNEAKAQMIGVREETLAQHGAVSEPVVVEMAIGALKAARADYAVSISGIAGPDGGSEEKPVGTVWFAFATARGEGITRRECFSGDRDAVRRQATAYALQTLWQQFLQNT [P0A6G3],6 ± 0.73 h,–,4.97 ± 0.2 h,5.11 ± 0.27 h,4.06 ± 0.093 h,–,5.59 ± 0.56 h,11 ± 1.9 h,4.67 ± 0.057 h,7.78 ± 0.54 h,5.897 ± 0.055 h,11.7 ± 0.88 h
MELKATTLGKRLAQHPYDRAVILNAGIKVSGDRHEYLIPFNQLLAIHCKRGLVWGELEFVLPDEKVVRLHGTEWGETQRFYHHLDAHWRRWSGEMSEIASGVLRQQLDLIATRTGENKWLTREQTSGVQQQIRQALSALPLPVNRLEEFDNCREAWRKCQAWLKDIESARLQHNQAYTEAMLTEYADFFRQVESSPLNPAQARAVVNGEHSLLVLAGAGSGKTSVLVARAGWLLARGEASPEQILLLAFGRKAAEEMDERIRERLHTEDITARTFHALALHIIQQGSKKVPIVSKLENDTAARHELFIAEWRKQCSEKKAQAKGWRQWLTEEMQWSVPEGNFWDDEKLQRRLASRLDRWVSLMRMHGGAQAEMIASAPEEIRDLFSKRIKLMAPLLKAWKGALKAENAVDFSGLIHQAIVILEKGRFISPWKHILVDEFQDISPQRAALLAALRKQNSQTTLFAVGDDWQAIYRFSGAQMSLTTAFHENFGEGERCDLDTTYRFNSRIGEVANRFIQQNPGQLKKPLNSLTNGDKKAVTLLDESQLDALLDKLSGYAKPEERILILARYHHMRPASLEKAATRWPKLQIDFMTIHASKGQQADYVIIVGLQEGSDGFPAAARESIMEEALLPPVEDFPDAEERRLMYVALTRARHRVWALFNKENPSPFVEILKNLDVPVARKP,6.73 ± 0.37 h,5.42 ± 0.098 h,4.93 ± 0.55 h,5.31 ± 0.26 h,4.17 ± 0.1 h,2.66 ± 0.17 h,5.06 ± 0.43 h,8.95 ± 0.32 h,4.45 ± 0.033 h,7.69 ± 0.31 h,4.69 ± 0.16 h,9.53 ± 0.42 h
MNGLLRIRQRYQGLAQSDKKLADYLLLQPDTARHLSSQQLANEAGVSQSSVVKFAQKLGYKGFPALKLALSEALASQPESPSVPIHNQIRGDDPLRLVGEKLIKENTAAMYATLNVNSEEKLHECVTMLRSARRIILTGIGASGLVAQNFAWKLMKIGFNAAAVRDMHALLATVQASSPDDLLLAISYTGVRRELNLAADEMLRVGGKVLAITGFTPNALQQRASHCLYTIAEEQATNSASISACHAQGMLTDLLFIALIQQDLELAPERIRHSEALVKKLV,5.79 ± 0.53 h,4.3186 ± 0.00083 h,2.83 ± 0.031 h,3.72 ± 0.33 h,3.5 ± 0.69 h,2.44 ± 0.087 h,4.31 ± 0.2 h,5.65 ± 1.1 h,2.8 ± 0.11 h,4.19 ± 0.29 h,3.73 ± 0.18 h,7.58 ± 1.8 h
MNSCDFRVFLQEFGTTVHLSLPGSVSEKERLLLKLLMQGMSVTEISQYRNRSAKTISHQKKQLFEKLGIQSDITFWRDIFFQYNPEIISATGSNSHRYINDNHYHHIVTPEAISLALENHEFKPWIQPVFCAQTGVLTGCEVLVRWEHPQTGIIPPDQFIPLAESSGLIVIMTRQLMKQTADILMPVKHLLPDNFHIGINVSAGCFLAAGFEKECLNLVNKLGNDKIKLVLELTERNPIPVTPEARAIFDSLHQHNITFALDDFGTGYATYRYLQAFPVDFIKIDKSFVQMASVDEISGHIVDNIVELARKPGLSIVAEGVETQEQADLMIGKGVHFLQGYLYSPPVPGNKFISEWVMKAGG,6.19 ± 0.079 h,5.64 ± 0.26 h,–,–,5.76 ± 0.27 h,3.346 ± 0.027 h,5.06 ± 0.71 h,10.4 ± 2.6 h,5.94 ± 0.41 h,10.9 ± 0.36 h,5.76 ± 0.1 h,12.3 ± 1.1 h
MESKRLDNAALAAGISPNYINAHGKPQSISAETKRRLLDAMHQRTATKVAVTPVPNVMVYTSGKKMPMVVEGSGEYSWLLTTEEGTQYKGHVTGGKAFNLPTKLPEGYHTLTLTQDDQRAHCRVIVAPKRCYEPQALLNKQKLWGACVQLYTLRSEKNWGIGDFGDLKAMLVDVAKRGGSFIGLNPIHALYPANPESASPYSPSSRRWLNVIYIDVNAVEDFHLSEEAQAWWQLPTTQQTLQQARDADWVDYSTVTALKMTALRMAWKGFAQRDDEQMAAFRQFVAEQGDSLFWQAAFDALHAQQVKEDEMRWGWPAWPEMYQNVDSPEVRQFCEEHRDDVDFYLWLQWLAYSQFAACWEISQGYEMPIGLYRDLAVGVAEGGAETWCDRELYCLKASVGAPPDILGPLGQNWGLPPMDPHIITARAYEPFIELLRANMQNCGALRIDHVMSMLRLWWIPYGETADQGAYVHYPVDDLLSILALESKRHRCMVIGEDLGTVPVEIVGKLRSSGVYSYKVLYFENDHEKTFRAPKAYPEQSMAVAATHDLPTLRGYWECGDLTLGKTLGLYPDEVVLRGLYQDRELAKQGLLDALHKYGCLPKRAGHKASLMSMTPTLNRGLQRYIADSNSALLGLQPEDWLDMAEPVNIPGTSYQYKNWRRKLSATLESMFADDGVNKLLKDLDRRRRAAAKKK,6.24 ± 0.17 h,6.29 ± 0.23 h,–,4.12 ± 1.7 h,5.57 ± 0.12 h,–,6.27 ± 0.46 h,13.5 ± 1.4 h,6.03 ± 0.061 h,12.1 ± 0.58 h,5.25 ± 0.14 h,10.3 ± 0.19 h
MQNAGSLVVLGSINADHILNLQSFPTPGETVTGNHYQVAFGGKGANQAVAAGRSGANIAFIACTGDDSIGESVRQQLATDNIDITPVSVIKGESTGVALIFVNGEGENVIGIHAGANAALSPALVEAQRERIANASALLMQLESPLESVMAAAKIAHQNKTIVALNPAPARELPDELLALVDIITPNETEAEKLTGIRVENDEDAAKAAQVLHEKGIRTVLITLGSRGVWASVNGEGQRVPGFRVQAVDTIAAGDTFNGALITALLEEKPLPEAIRFAHAAAAIAVTRKGAQPSVPWREEIDAFLDRQR [P0A9J6],–,6.07 ± 2.1 h,4.44 ± 0.042 h,4.91 ± 0.38 h,4.54 ± 0.2 h,3.14 ± 0.1 h,5.66 ± 0.076 h,11.8 ± 0.53 h,4.74 ± 0.36 h,7.76 ± 0.41 h,5.878 ± 0.056 h,11.9 ± 0.91 h
MAIPKLQAYALPESHDIPQNKVDWAFEPQRAALLIHDMQDYFVSFWGENCPMMEQVIANIAALRDYCKQHNIPVYYTAQPKEQSDEDRALLNDMWGPGLTRSPEQQKVVDRLTPDADDTVLVKWRYSAFHRSPLEQMLKESGRNQLIITGVYAHIGCMTTATDAFMRDIKPFMVADALADFSRDEHLMSLKYVAGRSGRVVMTEELLPAPIPASKAALREVILPLLDESDEPFDDDNLIDYGLDSVRMMALAARWRKVHGDIDFVMLAKNPTIDAWWKLLSREVK [P0ADI4],6.06 ± 2.3 h,2.48 h,1.47 h,–,1.73 ± 0.48 h,2.18 ± 0.18 h,3.32 ± 0.47 h,5.74 ± 0.72 h,–,4.49 h,–,5.51 h
MADLDDIKDGKDFRTDQPQKNIPFTLKGCGALDWGMQSRLSRIFNPKTGKTVMLAFDHGYFQGPTTGLERIDINIAPLFEHADVLMCTRGILRSVVPPATNRPVVLRASGANSILAELSNEAVALSMDDAVRLNSCAVAAQVYIGSEYEHQSIKNIIQLVDAGMKVGMPTMAVTGVGKDMVRDQRYFSLATRIAAEMGAQIIKTYYVEKGFERIVAGCPVPIVIAGGKKLPEREALEMCWQAIDQGASGVDMGRNIFQSDHPVAMMKAVQAVVHHNETADRAYELYLSEKQ,4.41 ± 0.29 h,3.51 ± 0.53 h,3.03 ± 0.036 h,3.91 ± 0.79 h,3.6 ± 0.39 h,3.27 ± 0.084 h,5.1 ± 0.23 h,8.52 ± 0.53 h,3.58 h,4.43 ± 0.74 h,5.44 ± 0.21 h,11 ± 0.47 h
MPQRILVLGASGYIGQHLVRTLSQQGHQILAAARHVDRLAKLQLANVSCHKVDLSWPDNLPALLQDIDTVYFLVHSMGEGGDFIAQERQVALNVRDALREVPVKQLIFLSSLQAPPHEQSDHLRARQATADILREANVPVTELRAGIIVGAGSAAFEVMRDMVYNLPVLTPPRWVRSRTTPIALENLLHYLVALLDHPASEHRIFEAAGPEVLSYQQQFEHFMAVSGKRRWLIPIPLPTRWISVWFLNVITSVPPTTARALIQGLKHDLLADDTALRALIPQRLIAFDDAVRSTLKEEEKLVNSSDWGYDAQAFARWRPEYGYFAKQAGFTVKTSASLAALWQVVNQIGGKERYFFGNILWQTRALMDRAIGHKLAKGRPEREYLQTGDAVDSWKVIVVEPEKQLTLLFGMKAPGLGRLCFSLEDKGDYRTIDVRAFWHPHGMPGLFYWLLMIPAHLFIFRGMAKQIARLAEQSTD,–,6.7 ± 0.22 h,6.57 ± 0.8 h,6.64 ± 0.098 h,6.11 ± 0.37 h,2.94 ± 0.081 h,5.88 ± 0.11 h,12.1 ± 2.1 h,6.42 ± 0.19 h,11.8 ± 0.4 h,5.23 ± 0.016 h,11.1 ± 0.83 h
MSYSNILVAVAVTPESQQLLAKAVSIARPVKGHISLITLASDPEMYNQLAAPMLEDLRSVMHEETQSFLDKLIQDAGYPVDKTFIAYGELSEHILEVCHKHHFDLVICGNHNHSFFSRASCSAKRVIASSEVDVLLVPLTGD,4.56 ± 0.81 h,3.97 h,4.06 h,4.66 ± 0.43 h,3.93 ± 0.25 h,3.26 ± 0.33 h,3.71 h,9.83 ± 3.1 h,4.07 h,6.65 h,5.2 h,11.8 ± 1.2 h
MKILLIEDNQRTQEWVTQGLSEAGYVIDAVSDGRDGLYLALKDDYALIILDIMLPGMDGWQILQTLRTAKQTPVICLTARDSVDDRVRGLDSGANDYLVKPFSFSELLARVRAQLRQHHALNSTLEISGLRMDSVSHSVSRDNISITLTRKEFQLLWLLASRAGEIIPRTVIASEIWGINFDSDTNTVDVAIRRLRAKVDDPFPEKLIATIRGMGYSFVAVKK,5.88 ± 0.19 h,4.67 ± 0.22 h,5.28 ± 1 h,4.77 ± 0.42 h,4.91 ± 0.52 h,2.99 ± 0.052 h,–,10.4 ± 0.76 h,4.11 ± 0.2 h,7.422 ± 0.042 h,5.64 ± 0.063 h,11.9 ± 0.75 h
